Data as given in the nanobody polyreactivity screen of Harvey et al. (2022).

Assay: yeast display, Sf9 membrane polyspecificity reagent, FACS + sequencing; frameworks hold sequencing errors
Summary of the method: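 Galactose-induced (36–48 hours) yeast carrying a synthetic nanobody display library were exposed to 10% biotinylated, detergent-solubilized Sf9 membrane reagent at 4 °C for 1 hour. FACS followed streptavidin microbead enrichment, using low and high (top ~1%) gates for expression (anti-HA) and reagent binding (streptavidin). Colony PCR, MiSeq 2 × 250 sequencing and CDR-length filtering followed. Labels for polyreactivity reflect the gate of origin.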

Sequence | polyreactivity (PSR sort gate)
QVQLVESGGGLVQAGGSLRLSCASSGRTFTRYAMGWYRQAPGKERELVAAITGGGTTNYADSVKGRFTISRDNAKNTVYLQINSLKPEDTAVYYCAADEQDVFAPGLYFWGQGTQVTVSS | low polyreactivity
QAELVESGGGLVQAGGSLRLSCAASGLTFRAYAMGGYRQAPGKERELVAAISWNGGSTYYADSVKGRFTISRDNAKNTVYLQMNCLKPEDTAVYYCNAYDYQYFYGYEYDYWGQGTQVTVSS | high polyreactivity
QVQLVESGGGLVQAGGSLRLSCAASGRTFVVNAMGWYRQAPGKERELVAAIYADSVKGRFTISRDNAKNTVYLQMNSLKPEDTAVYYCAASGGTWVYYRPEYDYWGQGTQVTVSS | low polyreactivity
QVQLVESGGGLVQAGGSLRLSCAASGRTFPYYAMGWYRQAPGKERELVAAINGRGGSTYYSDSVKGRFTISRDNAKNTVYLQMNSLKPEDTAVYYCAARYESRYSRYGYWGQGTQVTVSS | high polyreactivity
QVQLVESGGGLVQAGGSLRLSCAASGRTFGRYAMGWYRQAPGKERELVAAISYSTDSTYYADSVKGRFTISRDNAKNTVYLQMNSLKPEDTAVYYCASDSVIVGSYVGDKHDYWGQGTQVTVSW | low polyreactivity
QVQLVESGGGLVQAGGSLRLSCAASGRTFGVNAMGWYRQAPRKERELVARIRVSGGRTYYADSVKGRFTISRDNAKNSVYLLMNSLKPEDTAVYYCNAGDTYNRVIWPYYYCGQGTQVTVSS | high polyreactivity
QVQHVESGGGLVQAGGSLRLSCAASGSTFGLYAMGWYRQAPGKERELVAAISRRGGSTYYADSVKGRLTISRDNAKNTVYLQMNSLRPVETAVYDCAAVTAYRFDTLGMDYWGQGTQVTVSS | high polyreactivity
QVQLVESGGGLVQAGGSLRLSCAASGSILQRNAMGWYRQAPGKERELVAAISSSGDNTYYADSVKGRITISRDNAKNTVYLQMNSLKPEDTAVYYCATDADIYFQEYDYWGQGTQVTVSS | low polyreactivity
QVQLVESGGGLVQAGGSLRLSCAASGSILGGNAMGWSRQAPGKERELVAAITFSGGGTYYADSVKGRFTISRDNAKNTVYLQMNSLKPEDTAVYYCAADKDGYTYEFDYWGQGTQVTVSS | low polyreactivity
QVQLVESGGGLVQAGGSLRLICAASGRIFSKNAMGWYRQAPGKEREFVAAISRIGGRTYYADSVKGRFTISRDNAKNTVYFQMNSLKPEDTAVYYCATVHYGYTTSYDYWGQGTQVTVSS | high polyreactivity
QVQLVESGGGLVQAGGSLRLSCAASGNIFGFYTMGWYRQAPGKERELVAAIRSRGGSTNYADSVKGRFTISRDNAKNTVYIQMNSLKPEDTAVYYCNKDGTWLARAVTYADFDYWGQGTQVTVSS | low polyreactivity
QVQLVESGGGLVQAGGSLLLSCAASGGTFGGYTMGWYRQAPVKERELVAAITRSGSSTFYADSVKGRFTISRDNAKNTVYLQMNSLKPEDTAVYYCAALWHAVFYADYDYWGQGTQVSVSS | high polyreactivity
QVQLVESGGGLVQAGGSLRLSCAASGSILQDYAMGWYRQAPGKERELVAAISNSGDSTYYADSVKGRFTISRDNAKNTVYLQMNSLKPEDTAVYYCNAAVYPYALYSGGLDYDYWGQGTQVTVSS | low polyreactivity
QVQLVESGGGLVQAGGSLRLSCAASGRIFQGYAKGWYRQAPGKERELVAAIRTGGSTNYADSVKGRFTISRDNAKNTVYLQMNSLKPEDTAVYYCNAVGQLYFYFPRGDYWGQGTQVTVSS | low polyreactivity
QVQLVESGGGLVQAGGSLRLSCAASGFIFGYNAMGWYRQAPGKERELVAAITRSGGRTYYADSVKGRFTISRDNAKNTVYLQMNSLKPEDTSVYYCAASRFATYPRWYDYWGQGTQVTVSS | low polyreactivity
QVQLVESGGGLVQAGGSLRLSCAASGLIFGWYAMGWYRPEPGKEREFVASIRYGGGSTYYADSVKGRFTISRDNAKNTVYLQMNSLKPEDTAVYYCAADRYPWHLQYVEYDSDYWGQGTQVTVSS | low polyreactivity
QVQLVESGGGLVQAGGSLRLSCAASGIILPYYVMGWYRQAPGKEREFVADITWSGGSTYYADSVKARFTISRDNAKNTVYLQMNSLKPEDTAVYYCAAEGQWYYFFDMDYWGQGTQVTVSS | high polyreactivity
